In publication PMC4053179:

Columns and labels:
[1] = molecular target: recombinant p38α MAP kinase (mitogen activated protein kinase) (UniProt Q16539)
[2] = molecular target: recombinant p38α MAP kinase (mitogen activated protein kinase) (UniProt Q16539); test: SPR; His-tagged p38α immobilised on an NTA sensor chip via Ni2+/NTA chelation, 25°C, BIAcore-2000; C-25 injected at 4.6 × 10^−6, 9.2 × 10^−6 and 13.8 × 10^−6 M; BIAevaluation 3.0

UniProt Q16539, sequence (Q16539 whole entry): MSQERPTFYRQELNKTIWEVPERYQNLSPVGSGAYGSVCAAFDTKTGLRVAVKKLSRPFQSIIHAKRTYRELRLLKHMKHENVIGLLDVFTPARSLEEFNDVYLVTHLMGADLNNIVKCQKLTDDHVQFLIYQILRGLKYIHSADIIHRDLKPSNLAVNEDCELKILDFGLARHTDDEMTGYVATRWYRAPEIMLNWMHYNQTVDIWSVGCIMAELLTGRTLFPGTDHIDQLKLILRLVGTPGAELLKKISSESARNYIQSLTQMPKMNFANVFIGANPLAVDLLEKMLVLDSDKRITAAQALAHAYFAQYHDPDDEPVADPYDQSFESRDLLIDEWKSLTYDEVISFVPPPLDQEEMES

IC50 of inhibition of the phosphorylation of plate-coated ATF-2 by p38α (ELISA kinase assay, 100 μM ATP, C-25 at 1-25 μM, anti-phospho ATF-2 detection) [1]: 7.9 µM | Kd [2]: 0.269 µM
Substance: C-25 protein from Cicer arietinum (natural protein)
